From publication PMC10833561
Like-named read-outs stand apart in the source and are kept apart here.

| Substance | expression_or_secretion (N-glycosylation at N171) | other (N-glycosylation at N171) | expression_or_secretion (N-glycosylation at N202) | other (N-glycosylation at N202) |
| --- | --- | --- | --- | --- |
| SIVmac239 Env (envelope glycoprotein, gp120 V2 apex): T173I (in SIVmac239 K180S) | no change | abolishes |  |  |
| SIVmac239 Env (envelope glycoprotein, gp120): S204G (in SIVmac239 K180S) |  |  | no change | decreases |
